Usually stoichiometry N stands for the number of molecules, sites or subunits per partner or assembly.

Like-named read-outs stand apart in the source and are kept apart here.

Experimental findings from PMC11621127 are described below.

Assay [1] deals with 6535.3 SOSIP (chimeric SOSIP Env trimer: gp120 from 6535.3, gp41 from BG505 with MD39 substitutions) (HIV-1 strain 6535.3 | HIV-1 strain BG505). The assay can be described thus: mass photometry; Fab-SOSIP complexes formed at room temperature in TBS overnight, 4 uM trimer, 1.05 molar excess of Fab to SOSIP protomer, not purified by SEC; diluted to 8 nM trimer and a further 10-fold (6535.3) or 4-fold (JRCSF) on the instrument; SOSIP alone as control. (In gel filtration, larger molecules generally elute earlier.)

Assay [2] addresses JRCSF SOSIP (chimeric SOSIP Env trimer: gp120 from JRCSF.JB, gp41 from BG505 with MD39 substitutions) (HIV-1 strain JRCSF.JB | HIV-1 strain BG505). The description is as above.
Assay [3] has the same target. Nature of the assay: cryo-EM structure; SOSIP complexed with Fab at room temperature overnight, about 1.3:1 molar excess Fab:SOSIP protomer; SEC (Superose 6 Increase) in TBS; ~1.1 mg/mL (JRCSF/Ab1456) or ~1.9 mg/mL (6535.3/Ab1271); no sCD4 or CD4 mimetic.
Assay [4] shares this target. The description is as above. The source holds these as a separate data set.
For assay [5] the target is unchanged. The description is as above. The source holds these as a separate data set.
Assay [6] addresses 6535.3 SOSIP (chimeric SOSIP Env trimer: gp120 from 6535.3, gp41 from BG505 with MD39 substitutions) (HIV-1 strain 6535.3 | HIV-1 strain BG505). The description is as above.

On to “6535.3 SOSIP (chimeric SOSIP Env trimer: gp120 from 6535.3, gp41 from BG505 with MD39 substitutions) (complex)”, for which, in assay [1], the stoichiometry N stood at 3. As for “JRCSF SOSIP (chimeric SOSIP Env trimer: gp120 from JRCSF.JB, gp41 from BG505 with MD39 substitutions) (complex)”, in assay [2], the stoichiometry N came out at 3.

B1: Ab1456 Fab (Fab, V domains shown)
VH: QVQLVESGAEVKRPGDSLKISCKTSGDVFTSTWITWVRQMPGKDLEWMASIYLDDSDTQYNPSFQGHVTISADKSINTIYLQLSSLKVSDTATYYCAKWGVDCSDSGCSSAFDSWGQGVLVTVSS
VL: SYELTQPPSVSGAPGQRVTISCTGGTSNIGNYYVQWYQQLPGTAPKLLIYENNKRPSGISDRFSGSQSGTSGSLTITTGLQSEDEADYFCQSYDDSLSAHVFGSGTKVTIL
B1: the stoichiometry N (Fab per trimer) in assay [3] came to 3; in assay [4] it was 1; in assay [5], 2.

B2: Ab1271 Fab (Fab, V domains shown)
VH: QVQLVESGPGLVKPSETLSLTCAVSGDSISSTWWNWIRQPPGKGLEWIGRISGDGGNTDYSPSLKSRVTISTDTSKNQLSLRLTSVAAADTAVYFCAAPDCSGPDCSPGFDYWGPGVLVTVSS
VL: QPVLTQPPSVSGAPGQRVTISCTGSSSDIGRFYVQWYQQLPGTAPKLLIYENTKRPSGISDRFSGSQSGPSASLTITGLQSEDEADYYCQSYDSSMSAHVLFGGGTRLTVL
With B2, the stoichiometry N (Fab per trimer) in assay [1] and in assay [6] was 1 each time.
